“And” between values parts separate entries of the source, which are not always exact repeats. Identical values can stand only once. Each block holds one binder with its values, some of them ahead of it.
B1: CTC1 (subunit of purified recombinant human CST) (natural protein, UniProt Q2NKJ3 1-1217, looked up)
chain: MAAGRAQVPSSEQAWLEDAQVFIQKTLCPAVKEPNVQLTPLVIDCVKTVWLSQGRNQGSTLPLSYSFVSVQDLKTHQRLPCCSHLSWSSSAYQAWAQEAGPNGNPLPREQLLLLGTLTDLSADLEQECRNGSLYVRDNTGVLSCELIDLDLSWLGHLFLFPRWSYLPPARWNSSGEGHLELWDAPVPVFPLTISPGPVTPIPVLYPESASCLLRLRNKLRGVQRNLAGSLVRLSALVKSKQKAYFILSLGRSHPAVTHVSIIVQVPAQLVWHRALRPGTAYVLTELRVSKIRGQRQHVWMTSQSSRLLLLKPECVQELELELEGPLLEADPKPLPMPSNSEDKKDPESLVRYSRLLSYSGAVTGVLNEPAGLYELDGQLGLCLAYQQFRGLRRVMRPGVCLQLQDVHLLQSVGGGTRRPVLAPCLRGAVLLQSFSRQKPGAHSSRQAYGASLYEQLVWERQLGLPLYLWATKALEELACKLCPHVLRHHQFLQHSSPGSPSLGLQLLAPTLDLLAPPGSPVRNAHNEILEEPHHCPLQKYTRLQTPSSFPTLATLKEEGQRKAWASFDPKALLPLPEASYLPSCQLNRRLAWSWLCLLPSAFCPAQVLLGVLVASSHKGCLQLRDQSGSLPCLLLAKHSQPLSDPRLIGCLVRAERFQLIVERDVRSSFPSWKELSMPGFIQKQQARVYVQFFLADALILPVPRPCLHSATPSTPQTDPTGPEGPHLGQSRLFLLCHKEALMKRNFCVPPGASPEVPKPALSFYVLGSWLGGTQRKEGTGWGLPEPQGNDDNDQKVHLIFFGSSVRWFEFLHPGQVYRLIAPGPATPMLFEKDGSSCISRRPLELAGCASCLTVQDNWTLELESSQDIQDVLDANKSLPESSLTDLLSDNFTDSLVSFSAEILSRTLCEPLVASLWMKLGNTGAMRRCVKLTVALETAECEFPPHLDVYIEDPHLPPSLGLLPGARVHFSQLEKRVSRSHNVYCCFRSSTYVQVLSFPPETTISIPLPHIYLAELLQGGQSPFQATASCHIVSVFSLQLFWVCAYCTSICRQGKCTRLGSTCPTQTAISQAIIRLLVEDGTAEAVVTCRNHHVAAALGLCPREWASLLDFVQVPGRVVLQFAGPGAQLESSARVDEPMTMFLWTLCTSPSVLRPIVLSFELERKPSKIVPLEPPRLQRFQCGELPFLTHVNPRLRLSCLSIRESEYSSSLGILASSC
B2: STN1 (subunit of purified recombinant human CST) (natural protein, UniProt Q9H668 1-368, looked up)
chain: MQPGSSRCEEETPSLLWGLDPVFLAFAKLYIRDILDMKESRQVPGVFLYNGHPIKQVDVLGTVIGVRERDAFYSYGVDDSTGVINCICWKKLNTESVSAAPSAARELSLTSQLKKLQETIEQKTKIEIGDTIRVRGSIRTYREEREIHATTYYKVDDPVWNIQIARMLELPTIYRKVYDQPFHSSALEKEEALSNPGALDLPSLTSLLSEKAKEFLMENRVQSFYQQELEMVESLLSLANQPVIHSASSDQVNFKKDTTSKAIHSIFKNAIQLLQEKGLVFQKDDGFDNLYYVTREDKDLHRKIHRIIQQDCQKPNHMEKGCHFLHILACARLSIRPGLSEAVLQQVLELLEDQSDIVSTMEHYYTAF

Tests used:
cryo-EM structure = target: the molecule itself; assay: cryo-EM structure
[1] = target: B1; assay: cryo-EM structure
[2] = target: B2; assay: cryo-EM structure
negative-stain EM = target: the molecule itself; assay: negative-stain EM

Binder: B1
binding result (cryo-EM structure): binds

Binder: B2
stoichiometry N [1]: 1

binding result [1]: binds | stoichiometry N [2]: 1
B3: TEN1 (subunit of purified recombinant human CST) (natural protein)
chain: MLPKPGTYYLPWEVSAGQVPDGSTLRTFGRLCLYDMIQSRVTLMAQHGSDQHQVLVCTKLVEPFHAQVGSLYIVLGELQHQQDRGSVVKARVLTCVEGMNLPLLEQAIREQRLYKQERGGSQ

B4: human CTC1-STN1-TEN1 (CST) complex, purified recombinant heterotrimer (complex)
chain 1: AAGRAQVPSSEQAWLEDAQVFIQKTLCPAVKEPNVQLTPLVIDCVKTVWLSQGRNQGSTLPLSYSFVSVQDLKTHQRLPCCSHLSWSSSAYQAWAQEAGPNGNPLPREQLLLLGTLTDLSADLEQECRNGSLYVRDNTGVLSCELIDLDLSWLGHLFLFPRWSYLPPARWNSSGEGHLELWDAPVPVFPLTISPGPVTPIPVLYPESASCLLRLRNKLRGVQRNLAGSLVRLSALVKSKQKAYFILSLGRSHPAVTHVSIIVQVPAQLVWHRALRPGTAYVLTELRVSKIRGQRQHVWMTSQSSRLLLLKPECVQELELELEGPLLEADPKPLPMPSNSEDKKDPESLVRYSRLLSYSGAVTGVLNEPAGLYELDGQLGLCLAYQQFRGLRRVMRPGVCLQLQDVHLLQSVGGGTRRPVLAPCLRGAVLLQSFSRQKPGAHSSRQAYGASLYEQLVWERQLGLPLYLWATKALEELACKLCPHVLRHHQFLQHSSPGSPSLGLQLLAPTLDLLAPPGSPVRNAHNEILEEPHHCPLQKYTRLQTPSSFPTLATLKEEGQRKAWASFDPKALLPLPEASYLPSCQLNRRLAWSWLCLLPSAFCPAQVLLGVLVASSHKGCLQLRDQSGSLPCLLLAKHSQPLSDPRLIGCLVRAERFQLIVERDVRSSFPSWKELSMPGFIQKQQARVYVQFFLADALILPVPRPCLHSATPSTPQTDPTGPEGPHLGQSRLFLLCHKEALMKRNFCVPPGASPEVPKPALSFYVLGSWLGGTQRKEGTGWGLPEPQGNDDNDQKVHLIFFGSSVRWFEFLHPGQVYRLIAPGPATPMLFEKDGSSCISRRPLELAGCASCLTVQDNWTLELESSQDIQDVLDANKSLPESSLTDLLSDNFTDSLVSFSAEILSRTLCEPLVASLWMKLGNTGAMRRCVKLTVALETAECEFPPHLDVYIEDPHLPPSLGLLPGARVHFSQLEKRVSRSHNVYCCFRSSTYVQVLSFPPETTISIPLPHIYLAELLQGGQSPFQATASCHIVSVFSLQLFWVCAYCTSICRQGKCTRLGSTCPTQTAISQAIIRLLVEDGTAEAVVTCRNHHVAAALGLCPREWASLLDFVQVPGRVVLQFAGPGAQLESSARVDEPMTMFLWTLCTSPSVLRPIVLSFELERKPSKIVPLEPPRLQRFQCGELPFLTHVNPRLRLSCLSIRESEYSSSLGILASSC
chain 2: QPGSSRCEEETPSLLWGLDPVFLAFAKLYIRDILDMKESRQVPGVFLYNGHPIKQVDVLGTVIGVRERDAFYSYGVDDSTGVINCICWKKLNTESVSAAPSAARELSLTSQLKKLQETIEQKTKIEIGDTIRVRGSIRTYREEREIHATTYYKVDDPVWNIQIARMLELPTIYRKVYDQPFHSSALEKEEALSNPGALDLPSLTSLLSEKAKEFLMENRVQSFYQQELEMVESLLSLANQPVIHSASSDQVNFKKDTTSKAIHSIFKNAIQLLQEKGLVFQKDDGFDNLYYVTREDKDLHRKIHRIIQQDCQKPNHMEKGCHFLHILACARLSIRPGLSEAVLQQVLELLEDQSDIVSTMEHYYTAF
chain 3: LPKPGTYYLPWEVSAGQVPDGSTLRTFGRLCLYDMIQSRVTLMAQHGSDQHQVLVCTKLVEPFHAQVGSLYIVLGELQHQQDRGSVVKARVLTCVEGMNLPLLEQAIREQRLYKQERGGSQ
stoichiometry N (negative-stain EM): 4 and 2
